Each block holds one molecule with its values, some of them ahead of it.
Legend:
[1] = target: endogenous caspase-8 (human (endogenous in BJAB and HaCaT)) (UniProt Q14790); experiment: affinity purification with mass spectrometry; native CD95 DISC from c-FLIPS overexpressing HaCaT cells; label-free absolute quantification (TOP 3) by LC-MS/MS, n = 3
[2] = target: endogenous caspase-8 (human (endogenous in BJAB and HaCaT)) (UniProt Q14790); experiment: affinity purification with mass spectrometry; native TRAIL DISC from c-FLIPS overexpressing BJAB cells; label-free absolute quantification (TOP 3) by LC-MS/MS, n = 3
[3] = target: T1, endogenous FADD (human (endogenous in Jurkat, BJAB and …, UniProt Q13158 1-208)); experiment: affinity purification with mass spectrometry; native TRAIL DISC from control (vector) BJAB cells; label-free absolute quantification (TOP 3) by LC-MS/MS, n = 3; details: partners not purified
T1 construct: FADD, endogenous; source: endogenous, lysates of caspase-8 null Jurkat, BJAB and HaCaT cells
T1 sequence (looked up): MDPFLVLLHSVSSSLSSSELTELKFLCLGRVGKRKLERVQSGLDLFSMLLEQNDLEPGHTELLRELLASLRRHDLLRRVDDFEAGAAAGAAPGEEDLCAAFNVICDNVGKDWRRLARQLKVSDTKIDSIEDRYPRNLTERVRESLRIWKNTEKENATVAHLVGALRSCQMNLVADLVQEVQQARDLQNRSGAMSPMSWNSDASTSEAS

[4] = target: T1, endogenous FADD; experiment: affinity purification with mass spectrometry; native TRAIL DISC from c-FLIPS overexpressing BJAB cells; label-free absolute quantification (TOP 3) by LC-MS/MS, n = 3; details: partners not purified

stoichiometry N [1]: 1
stoichiometry N [2]: 1
Molecule: c-FLIPS stably overexpressed in BJAB or HaCaT cells (natural protein)

stoichiometry N [3]: ~6 fold
stoichiometry N [4]: ~1
B1: endogenous caspase-8 (natural protein, human (endogenous in BJAB and HaCaT), UniProt Q14790 1-479, looked up)
chain: MDFSRNLYDIGEQLDSEDLASLKFLSLDYIPQRKQEPIKDALMLFQRLQEKRMLEESNLSFLKELLFRINRLDLLITYLNTRKEEMERELQTPGRAQISAYRVMLYQISEEVSRSELRSFKFLLQEEISKCKLDDDMNLLDIFIEMEKRVILGEGKLDILKRVCAQINKSLLKIINDYEEFSKERSSSLEGSPDEFSNGEELCGVMTISDSPREQDSESQTLDKVYQMKSKPRGYCLIINNHNFAKAREKVPKLHSIRDRNGTHLDAGALTTTFEELHFEIKPHDDCTVEQIYEILKIYQLMDHSNMDCFICCILSHGDKGIIYGTDGQEAPIYELTSQFTGLKCPSLAGKPKVFFIQACQGDNYQKGIPVETDSEEQPYLEMDLSSPQTRYIPDEADFLLGMATVNNCVSYRNPAEGTWYIQSLCQSLRERCPRGDDILTILTEVNYEVSNKDDKKNMGKQMPQPTFTLRKKLVFPSD
notes: caspase-8, endogenous; procaspase-8 and p43/41 cleavage fragments detected; also called procaspase-8; p43/41 cleavage fragments; source: endogenous, BJAB and HaCaT lysates
